According to the nanobody polyreactivity screen of Harvey et al. (2022):

Assay: yeast display, Sf9 membrane polyspecificity reagent, FACS + sequencing; frameworks hold sequencing errors
How it was run: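 Galactose induction of a Saccharomyces cerevisiae BJ5465 synthetic nanobody display library ran 36–48 hours. The cells were then stained for 1 hour at 4 °C with 10% biotinylated, detergent-solubilized Sf9 membrane reagent, pulled down on streptavidin microbeads and FACS-sorted into low and high (top ~1%) gates on expression and reagent-binding fluorescence. Labels for polyreactivity follow the gate of origin.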

Row | Sequence | polyreactivity (PSR sort gate)
1 | QVQLVESGVCIVQAGGSLRLSGADSGNTLIQYAMRWYRQPHGKERELVAGISGSDDSTYYADSVKGRFTISRDNAKNTVYLQMNSLKPEDTAVYYCAALSISPSRTGYYWGQGTQVTVSS | low polyreactivity
2 | QVQLVESGGGLGQAGGSLRLSSAASGSIFWFYAMGWYRQAPGKERELVAAITSSGGTDYADSVKGRFSISRDNAKNTVYLQMNSLKPEDSAVYYCAADRIGGPGSYLYDYWGQGTQVTVSS | low polyreactivity
3 | QVQLEESGGGLVQAGGSLRLSCAASGGIFGWYTMGWNRQAPGKERELVAAINFSGSRTYYADSVKGRFTISRHNAKNTVYLQMNSLKPEDTAVYYCNAVYHQFRVEYWGQGTQVTVSS | high polyreactivity
4 | QGQLVESGGVLVQGGGSLRLSCAASGSIFVYNAMGWSRQAPGKERELVAANTSSGASTYYADSVKGRFPISRDNAKNTVYLQMISLNPEDTDVYYCNAGADSTVGNYVTSFSQYDFWGQGTQVTVSS | low polyreactivity
5 | QVQLVESGGGLVQAGGSLRLSCAASGRTFKRYAMGWYRQAPGKERELVAAITFSGGSTYYADSVKGRFTISRDNAKNTVYLQRNSLKPEDTAVYYCAADGEHYPWYYYWGQGTQVTVSS | high polyreactivity
6 | QVQLVESGGGLVQAGGSLRLSCAASGRILYSYAMGWYRQAPGKEREFVAAIRRSGGSTYYADSVKGRFSISRDNAKNTVYLQMNSLKPEDTAVYYCAAGRRYSGSYDYWGQGTQVTVSS | high polyreactivity
7 | QVQLVESGGGLVQAGGSLRLSCAAYGSIFTRYAMGWYIQAPGKERELVAAISKRGGRTYYADSVKGRFTISRDNAKNTVYLQMNSLKPEDTAVYYCNAGSYDYYDGSWSYDYWGQGTQVTVSS | high polyreactivity
8 | QVQLVESAGGLVQAGGSLRLSCAASGGIFFSYAMGWYRQAPGKERELVAAIRTNGGTTYYADSVKGRFTISRDNAKNNVYLQMNSLTPEDTAVYYCASLPGGYYDRGEYDYWGQGTQVTVSS | low polyreactivity
9 | QVQLVESGGGLVQAGGSLRLSCAASGSTFYVNSMGWYRQAPGKERELVAGISFSDGSTYYADSVKGRFTISRDNAKNTVYLQMNSLKPEDTAVYYCATVGALDIYYGYGYWVQGTQVTVSS | low polyreactivity
10 | QVQLVESGGGLVQAGGSLRLSCAASGSIFLGNAMGWYRQAPGKERELVAAITSRGGRTYYADSVKGRFTISRDNAKNTVYLQMISLKPEDTAVYYCAADVSRPRAGFNYWGQGTQVTVSS | high polyreactivity
11 | QVQLVESGGGLVQAGGSLRLSCAASGGTFSKYAMGWYRQAPGKEREFVAAITVSGGGSYYADSVKGRFTISRDNAKNTVYLQMNSLKPEDTAVYYCAADLAWTASDYWGQGTQVTVSS | low polyreactivity
12 | QVQLVESGGGLVQAGGSLRLSCAASGIIFYEYVMGWYRQAPGKERELVATISSIGGSTYYADSVKGRFTISRDNAKNTVYLQMNSLKPEDTAVYYCAADPDPVVSRGGNWYGDDYWGQGTQVTVSS | high polyreactivity
13 | QVQLVESGGGLFQAGGSLRLSCAASGFIFAWYAMGWSRQAPGKERELVATISSSGARTYYADSVKGRFTISRDNAKNTVYLQLNRLKPEDTAVYYCASVYSTLGVGYYYWGQGTQVTVSS | high polyreactivity
14 | QVQLVESGGGLVQAGGSLRLSCSASGSTFHYNAMGWYRQAQGKERELVAYISWRGASKYDADSVKGRFTISRDNAKNTVYLQMSSMKTEDTAVFFFNAVLTSYWYNSYKSRGDYWGQGTLVTVSS | high polyreactivity
15 | QVQLVESGGGLVQAGGSLRLSCAASGSIFGIYAMGWYRQAPGKERELVATITGRGGSTYYADSVKGRFTISRDNAKNTVYLQMNSLKPEDTAVYYCNAGGRSARYFWGGYWGQGTQVTVSS | high polyreactivity
16 | QVQLVESGGGLVQAGGSLRLSCAASGFTFIYYAMGWYRQAPGKERELVAAISRVDSTYYADSVKGRFTISSDNAKNTIYLQMNRLKPEDTAVYYFAAASQVRRDHGYWGQGTQVTVSS | low polyreactivity
17 | QVQLVESAGGLVQAGGSLRLSCAASGRIFARYAMGWYRQAPGKVRELVAAISASGGSTYYADSVKGRFTISRDNAKYTVYLQMNSLKPEDTAVYYCAARFSYPYRIAFNYWGQGTQVTVSS | low polyreactivity
